Measured values from the supplement of paper PMC6757056.
± gives the standard deviation of the averaged measurements.

B1: library; a variant is named by its letters at N, in order (parent)
chain: GCUGUCACCGGUGCUUGGUACGUUAUAUUCAGCCGGUCUGAUGAGUCUNNNNNNAGACGAAACAGC
B2: library; a variant is named by its letters at N, in order (parent)
chain: GCUGUCACCGAGAAACUGUGAAGUAUAUCUUAAACCUGGGCACUUAAAAGAUAUAUGGAGUUAGUAGUGCAACCUGCUCGGUCUGAUGAGUCCNNNNNNGGACGAAACAGC

How the values were obtained:
(6R,S)-folinic acid [1] = variants of: B1; assay: normalized RNA/DNA level without ligand (relative to sTRSVctl = 100) (log10 (% of sTRSVctl)); HEK293T overexpressing SLC46A1; higher = less ribozyme self-cleavage, higher mRNA level; details: without (6R,S)-folinic acid; ligand present: no
In short: (§1)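 Library plasmids carrying ribozyme switches linked to mCherry, or to eGFP in some ligand experiments, were transfected into HEK293T at 4 µg per 6-well well, with any ligand added 1 h earlier. Seventy-two hours on, total RNA was extracted with EDTA and reverse-transcribed, amplified, barcoded and sequenced. RNA level was RNA over DNA reads normalized to a spiked-in non-cleaving sequence or to the top sequences, then scaled and log-transformed. The top set was 25 sequences, the transform was ×100 and log10, and sequences needed ≥100 DNA reads.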

(6R,S)-folinic acid [2] = variants of: B1; assay: normalized RNA/DNA level with ligand (relative to sTRSVctl = 100) (log10 (% of sTRSVctl)); HEK293T overexpressing SLC46A1; ligand concentration (+) RNA-Seq: 6 mM; higher = less ribozyme self-cleavage, higher mRNA level; details: with (6R,S)-folinic acid; ligand present: yes
In short: as §1

cyclic di-GMP [3] = variants of: B2; assay: FACS-Seq fitted mean relative fluorescence mCherry/BFP without ligand (log10 relative fluorescence); HEK293T; ligand: cyclic di-GMP (c-di-GMP-II aptamer); higher = higher reporter protein expression; details: ligand present: no
Procedure: (§2)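 Hammerhead (sTRSV) ribozyme switch libraries with a ligand aptamer grafted on stem I and a randomized N4-6 loop II, cloned into the 3' UTR of mCherry and transiently transfected into HEK293T cells; RNA-Seq 72 h post transfection with ligand added 1 h before transfection; RNA read count / plasmid DNA read count normalized to the non-cleaving sTRSVctl (x100), log10; sequences with >100 DNA reads. FACS-Seq: lentiviral library sorted into 6 bins after 48 h ligand, log-normal fit mean of mCherry/BFP scaled to controls. Printed sequences are partial switch sequences.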

cyclic di-GMP [4] = variants of: B2; assay: normalized RNA/DNA level without ligand (relative to sTRSVctl = 100) (log10 (% of sTRSVctl)); HEK293T; ligand: cyclic di-GMP (c-di-GMP-II aptamer); higher = less ribozyme self-cleavage, higher mRNA level; details: reporter: mCherry (pCS4076), ligand present: no
Procedure: as §2

cyclic di-GMP [5] = variants of: B2; assay: FACS-Seq fitted mean relative fluorescence mCherry/BFP with ligand (log10 relative fluorescence); HEK293T; ligand: cyclic di-GMP (c-di-GMP-II aptamer); ligand concentration (+) FACS-Seq: 1 mM; higher = higher reporter protein expression; details: ligand present: yes
Procedure: as §2

cyclic di-GMP [6] = variants of: B2; assay: normalized RNA/DNA level with ligand (relative to sTRSVctl = 100) (log10 (% of sTRSVctl)); HEK293T; ligand: cyclic di-GMP (c-di-GMP-II aptamer); ligand concentration (+) RNA-Seq: 1 mM; higher = less ribozyme self-cleavage, higher mRNA level; details: reporter: mCherry (pCS4076), ligand present: yes
Procedure: as §2

| Variant | normalized RNA/DNA level without ligand (log10) ((6R,S)-folinic acid [1]) | normalized RNA/DNA level with ligand (log10) ((6R,S)-folinic acid [2]) | FACS-Seq fitted mean (log10) (cyclic di-GMP [3]) | normalized RNA/DNA level without ligand (log10) (cyclic di-GMP [4]) | FACS-Seq fitted mean (log10) (cyclic di-GMP [5]) | normalized RNA/DNA level with ligand (log10) (cyclic di-GMP [6]) |
| --- | --- | --- | --- | --- | --- | --- |
| UUUUAA | 1.973 ± 0.018 | 2.03 ± 0.02 | – | – | – | – |
| CUUUAC | 2.019 ± 0.0086 | 2.01 ± 0.062 | – | – | – | – |
| GUUUAC | 2.02 ± 0.028 | 2.016 ± 0.002 | – | – | – | – |
| AUUUAG | 1.949 ± 0.013 | 2.01 ± 0.026 | – | – | – | – |
| CUUUAG | 1.97 ± 0.024 | 1.9987 ± 0.00067 | – | – | – | – |
| CUUUAU | 1.9766 ± 0.0013 | 2 ± 0.048 | – | – | – | – |
| GUUUAU | 1.99 ± 0.02 | 1.99 ± 0.031 | – | – | – | – |
| UUUUAU | 2.007 ± 0.016 | 2.02 ± 0.023 | – | – | – | – |
| AUUUCA | 2.036 ± 0.012 | 2.01 ± 0.026 | – | – | – | – |
| CUUUCA | 1.992 ± 0.013 | 2.01 ± 0.077 | – | – | – | – |
| GUUUCA | 2.03 ± 0.034 | 1.99 ± 0.04 | – | – | – | – |
| UUUUCA | 2.018 ± 0.011 | 2.02 ± 0.041 | – | – | – | – |
| AUUUCC | 2.048 ± 0.0099 | 2.037 ± 0.01 | – | – | – | – |
| CUUUCC | 2.02 ± 0.03 | 2 ± 0.021 | – | – | – | – |
| GUUUCC | 2.021 ± 0.015 | 2 ± 0.068 | – | – | – | – |
| UUUUCC | 2.02 ± 0.022 | 2 ± 0.032 | – | – | – | – |
| AUUUCG | 1.961 ± 0.016 | 2 ± 0.026 | – | – | – | – |
| CUUUCG | 2.047 ± 0.0046 | 2.053 ± 0.0034 | – | – | – | – |
| GUUUCG | 1.99 ± 0.027 | 1.99 ± 0.039 | – | – | – | – |
| UUUUCG | 1.87 ± 0.018 | 1.998 ± 0.0083 | – | – | – | – |
| AUUUCU | 2.03 ± 0.025 | 2.034 ± 0.019 | – | – | – | – |
| CUUUCU | 1.998 ± 0.005 | 1.99 ± 0.035 | – | – | – | – |
| GUUUCU | 1.965 ± 0.012 | 1.97 ± 0.068 | – | – | – | – |
| UUUUCU | 2.012 ± 0.011 | 2.01 ± 0.038 | – | – | – | – |
| AUUUGA | 1.965 ± 0.0074 | 2 ± 0.053 | – | – | – | – |
| CUUUGA | 2.024 ± 0.004 | 2.05 ± 0.036 | – | – | – | – |
| GUUUGA | 2.013 ± 0.0046 | 2.05 ± 0.034 | – | – | – | – |

| Variant | normalized RNA/DNA level without ligand (log10) ((6R,S)-folinic acid [1]) | normalized RNA/DNA level with ligand (log10) ((6R,S)-folinic acid [2]) | FACS-Seq fitted mean (log10) (cyclic di-GMP [3]) | normalized RNA/DNA level without ligand (log10) (cyclic di-GMP [4]) | FACS-Seq fitted mean (log10) (cyclic di-GMP [5]) | normalized RNA/DNA level with ligand (log10) (cyclic di-GMP [6]) |
| --- | --- | --- | --- | --- | --- | --- |
| AUUUGC | 2 ± 0.02 | 1.99 ± 0.026 | – | – | – | – |
| CUUUGC | 2.047 ± 0.017 | 2.027 ± 0.016 | – | – | – | – |
| GUUUGC | 1.951 ± 0.018 | 2.02 ± 0.067 | – | – | – | – |
| UUUUGC | 1.959 ± 0.0097 | 1.93 ± 0.055 | – | – | – | – |
| CUUUGG | 2.023 ± 0.0097 | 1.994 ± 0.013 | – | – | – | – |
| GUUUGG | 1.985 ± 0.015 | 2.03 ± 0.044 | – | – | – | – |
| AUUUGU | 1.945 ± 0.002 | 2.02 ± 0.042 | – | – | – | – |
| CUUUGU | 1.986 ± 0.008 | 1.99 ± 0.022 | – | – | – | – |
| UUUUGU | 1.957 ± 0.014 | 2 ± 0.046 | – | – | – | – |
| CUUUUA | 1.988 ± 0.012 | 2 ± 0.052 | – | – | – | – |
| UUUUUA | 2.002 ± 0.0053 | 2.007 ± 0.014 | – | – | – | – |
| UUUUUC | 2.05 ± 0.026 | 2.01 ± 0.026 | – | – | – | – |
| CUUUUG | 2.0401 ± 0.001 | 2.04 ± 0.029 | – | – | – | – |
| GUUUUG | 2.007 ± 0.0091 | 2.02 ± 0.049 | – | – | – | – |
| AUUUUU | 1.989 ± 0.017 | 2.01 ± 0.029 | – | – | – | – |
| GUUUUU | 2.015 ± 0.0093 | 2 ± 0.02 | – | – | – | – |
| UUUUUU | 2.017 ± 0.014 | 2.03 ± 0.032 | – | – | – | – |
| CUGAGU | – | – | -0.459 ± 0.047 | 1.7 ± 0.022 | -0.264 ± 0.00087 | 1.83 ± 0.12 |
| GAUGCA | – | – | 0.17 ± 0.18 | 1.83 ± 0.066 | 0.358 ± 0.026 | 1.9 ± 0.12 |
| GCUUAG | – | – | -0.473 ± 0.076 | 1.638 ± 0.0094 | -0.165 ± 0.16 | 1.79 ± 0.069 |
| CUACAA | – | – | -0.602 ± 0.069 | 1.48 ± 0.11 | -0.356 ± 0.025 | 1.68 ± 0.067 |
| GUUAUA | – | – | -0.123 ± 0.14 | 1.59 ± 0.042 | 0.169 ± 0.14 | 1.75 ± 0.071 |
| AGGUCA | – | – | -0.483 ± 0.071 | 1.649 ± 0.0037 | -0.219 ± 0.037 | 1.77 ± 0.14 |
| CAAUCA | – | – | -0.5458 ± 0.0024 | 1.4 ± 0.11 | -0.364 ± 0.017 | 1.61 ± 0.085 |
| CGAUAA | – | – | -0.6883 ± 0.0045 | 1.22 ± 0.1 | -0.358 ± 0.058 | 1.41 ± 0.033 |
| AACACA | – | – | -0.289 ± 0.0062 | 1.54 ± 0.031 | -0.0564 ± 0.0031 | 1.75 ± 0.12 |
